Numbering of substitutions follows the chain as printed.
T1: CapR (Vibrio cholerae phage satellite PLE1, UniProt M1R2X8 1-139)
T1 sequence: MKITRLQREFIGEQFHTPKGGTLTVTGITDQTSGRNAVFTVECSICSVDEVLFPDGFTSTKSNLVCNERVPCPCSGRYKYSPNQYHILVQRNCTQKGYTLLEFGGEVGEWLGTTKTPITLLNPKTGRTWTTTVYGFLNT

T2: CapR C43/46/72/74S (4xmut) (Vibrio cholerae phage satellite PLE1, UniProt M1R2X8 1-139, C43S;C46S;C72S;C74S)
T2 sequence: T1 sequence with C43S, C46S, C72S, C74S

B1: probe D (dsDNA)
DNA 1: AATAATCGTTCGCAACAACAAATATTACAATTATTAATGCAAACGACATATTTATTTAAATTA
DNA 2: TAATTTAAATAAATATGTCGTTTGCATTAATAATTGTAATATTTGTTGTTGCGAACGATTATT
B2: probe F (dsDNA)
DNA 1: AATAATCGTTCGCAACAACAAATATTACAAT
DNA 2: ATTGTAATATTTGTTGTTGCGAACGATTATT

Legend:
CapR = molecular target: T1, CapR; test: EMSA
[1] = molecular target: T2, CapR C43/46/72/74S (4xmut); test: EMSA

| Binder | binding result (CapR) | binding result [1] |
| --- | --- | --- |
| B1 | binds | no binding |
| B2 | binds |  |

From article PMC8096241
